{
  "source": "paper PMC7277838",
  "target": "latency-associated peptide (LAP) of TGFβ1 (human (endogenous in human skin fibroblasts)) (UniProt P01137)",
  "data": [
    {"substance": "mature TGFβ1 ligand (from UniProt P01137 279-390)", "values": [
      {"measurement": "luciferase activity of mink lung TGFβ1 reporter cells given heat-treated (80 °C, 10 min) DOC-insoluble fractions of ML-II fibroblasts", "result": 3, "unit": "fold"}
    ]}
  ]
}
